# Data reported in patent US20240400654A1.
# Several values for one entry are separate records, joined by “and”; a condition that tells them apart may be missing. Equal entries are not always repeated.
# Biological target: HRgpA-6H (Porphyromonas gingivalis) (UniProt P28784)
# Experiment: ELISA, coated HRgpA-6H
# Sequence of UniProt P28784 (P28784 228-860 limits assumed): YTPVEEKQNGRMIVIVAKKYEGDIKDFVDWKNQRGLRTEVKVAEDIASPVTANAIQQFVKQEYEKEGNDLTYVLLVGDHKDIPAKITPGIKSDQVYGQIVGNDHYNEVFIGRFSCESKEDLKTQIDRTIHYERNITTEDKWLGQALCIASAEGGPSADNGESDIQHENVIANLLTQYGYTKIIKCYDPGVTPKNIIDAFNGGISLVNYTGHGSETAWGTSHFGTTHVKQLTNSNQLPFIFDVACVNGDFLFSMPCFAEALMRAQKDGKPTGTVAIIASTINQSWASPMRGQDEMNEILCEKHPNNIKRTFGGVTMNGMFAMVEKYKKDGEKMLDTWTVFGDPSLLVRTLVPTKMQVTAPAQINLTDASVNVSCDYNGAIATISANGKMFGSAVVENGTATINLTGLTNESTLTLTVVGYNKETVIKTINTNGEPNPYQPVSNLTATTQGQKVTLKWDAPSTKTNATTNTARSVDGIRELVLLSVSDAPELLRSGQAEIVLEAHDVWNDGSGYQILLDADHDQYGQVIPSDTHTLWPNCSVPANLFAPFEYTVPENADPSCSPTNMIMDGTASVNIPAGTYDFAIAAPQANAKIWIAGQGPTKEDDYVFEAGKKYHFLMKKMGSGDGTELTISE
Binder,OD450 nm,Ratio OD(Variant)/OD(WT)
"KB001 mouse Fab VL S32A (Fab, V domains shown) VH: EVQLKQSGPGLVAPSQSLSITCTVSGFSLSIYSVHWVRQPPGKGLEWLGMIWGGGSSDYNSALKSRLSISKDNSKSQVFLKMNSLQTDDTAMYYCARNGNFYAMDYWGQGTSVTVSS VL: QIVLTQSPAIMSASLGERVTMTCTASSSVSSAFLHWYQQKPGSSPQLWIYSTSNLASGVPARFSGSGSGTSYSLTISSMEAEDAATYYCHQYHHSPYIYTFGGGTKLEIK",0.748 and 0.805,0.885 and 0.953
"KB001 mouse Fab VL S32G (Fab, V domains shown) VH: EVQLKQSGPGLVAPSQSLSITCTVSGFSLSIYSVHWVRQPPGKGLEWLGMIWGGGSSDYNSALKSRLSISKDNSKSQVFLKMNSLQTDDTAMYYCARNGNFYAMDYWGQGTSVTVSS VL: QIVLTQSPAIMSASLGERVTMTCTASSSVSSGFLHWYQQKPGSSPQLWIYSTSNLASGVPARFSGSGSGTSYSLTISSMEAEDAATYYCHQYHHSPYIYTFGGGTKLEIK",0.759,0.898
"KB001 mouse Fab VL S32Y (Fab, V domains shown) VH: EVQLKQSGPGLVAPSQSLSITCTVSGFSLSIYSVHWVRQPPGKGLEWLGMIWGGGSSDYNSALKSRLSISKDNSKSQVFLKMNSLQTDDTAMYYCARNGNFYAMDYWGQGTSVTVSS VL: QIVLTQSPAIMSASLGERVTMTCTASSSVSSYFLHWYQQKPGSSPQLWIYSTSNLASGVPARFSGSGSGTSYSLTISSMEAEDAATYYCHQYHHSPYIYTFGGGTKLEIK",0.753,0.891
"KB001 mouse Fab VL S32P (Fab, V domains shown) VH: EVQLKQSGPGLVAPSQSLSITCTVSGFSLSIYSVHWVRQPPGKGLEWLGMIWGGGSSDYNSALKSRLSISKDNSKSQVFLKMNSLQTDDTAMYYCARNGNFYAMDYWGQGTSVTVSS VL: QIVLTQSPAIMSASLGERVTMTCTASSSVSSPFLHWYQQKPGSSPQLWIYSTSNLASGVPARFSGSGSGTSYSLTISSMEAEDAATYYCHQYHHSPYIYTFGGGTKLEIK",0.744,0.88
"KB001 mouse Fab VL S32Q (Fab, V domains shown) VH: EVQLKQSGPGLVAPSQSLSITCTVSGFSLSIYSVHWVRQPPGKGLEWLGMIWGGGSSDYNSALKSRLSISKDNSKSQVFLKMNSLQTDDTAMYYCARNGNFYAMDYWGQGTSVTVSS VL: QIVLTQSPAIMSASLGERVTMTCTASSSVSSQFLHWYQQKPGSSPQLWIYSTSNLASGVPARFSGSGSGTSYSLTISSMEAEDAATYYCHQYHHSPYIYTFGGGTKLEIK",0.716,0.847
"KB001 mouse Fab VL S32W (Fab, V domains shown) VH: EVQLKQSGPGLVAPSQSLSITCTVSGFSLSIYSVHWVRQPPGKGLEWLGMIWGGGSSDYNSALKSRLSISKDNSKSQVFLKMNSLQTDDTAMYYCARNGNFYAMDYWGQGTSVTVSS VL: QIVLTQSPAIMSASLGERVTMTCTASSSVSSWFLHWYQQKPGSSPQLWIYSTSNLASGVPARFSGSGSGTSYSLTISSMEAEDAATYYCHQYHHSPYIYTFGGGTKLEIK",0.649,0.856
"KB001 mouse Fab VL F33N (Fab, V domains shown) VH: EVQLKQSGPGLVAPSQSLSITCTVSGFSLSIYSVHWVRQPPGKGLEWLGMIWGGGSSDYNSALKSRLSISKDNSKSQVFLKMNSLQTDDTAMYYCARNGNFYAMDYWGQGTSVTVSS VL: QIVLTQSPAIMSASLGERVTMTCTASSSVSSSNLHWYQQKPGSSPQLWIYSTSNLASGVPARFSGSGSGTSYSLTISSMEAEDAATYYCHQYHHSPYIYTFGGGTKLEIK",0.64,0.844
"KB001 mouse Fab VL F33H (Fab, V domains shown) VH: EVQLKQSGPGLVAPSQSLSITCTVSGFSLSIYSVHWVRQPPGKGLEWLGMIWGGGSSDYNSALKSRLSISKDNSKSQVFLKMNSLQTDDTAMYYCARNGNFYAMDYWGQGTSVTVSS VL: QIVLTQSPAIMSASLGERVTMTCTASSSVSSSHLHWYQQKPGSSPQLWIYSTSNLASGVPARFSGSGSGTSYSLTISSMEAEDAATYYCHQYHHSPYIYTFGGGTKLEIK",0.736,0.971
